Measured values reported in publication PMC9164050, “N-Terminus-Mediated Solution Structure of Dimerization Domain of PRC1” (Current Issues in Molecular Biology, 2022).

Target: the molecule itself
Experiment: cross-linking; PEG5 cross-linker (0.1 M-1 M), protein at 20 nM and 50 nM, 50 mM sodium phosphate, 150 mM NaCl, pH 7.4, 25 °C, 30 min, read by SDS-PAGE

B1: PRC1 dimerization domain (PRC1-DD; aa 1-65 of Protein Regulator of Cytokinesis 1) (domain or fragment, human, UniProt O43663-1 1-65, looked up)
chain: MRRSEVLAEESIVCLQKALNHLREIWELIGIPEDQRLQRTEVVKKHIKELLDMMIAEEESLKERL
notes: Protein Regulator of Cytokinesis 1 (PRC1), human, isoform 1 (NP_003972; full length 620 residues), residues 1-65 (dimerization domain); Cloned between Nde I and Xho I of pET-21a with a C-terminal His-tag; no removal of the tag is described; For NMR the protein was 15N- or 15N/13C-labelled; isotopic heterodimers were made by mixing unlabelled and labelled protein in 8 M urea; also called …
B1 was tested, and the “stoichiometry N” value was 2.
